How the values were obtained:
Test in all cases: cell-based or functional assay
[1] = target: HIV-1 Env of pseudovirus T278-50 (clade CRF02_AG) (HIV-1)
[2] = target: HIV-1 Env of pseudovirus 620345.c01 (clade CRF01_AE) (HIV-1)
[3] = target: HIV-1 Env of pseudovirus X1193_c1 (clade G) (HIV-1)
[4] = target: HIV-1 Env of pseudovirus R1166.c01 (clade CRF01_AE) (HIV-1)
[5] = target: HIV-1 Env of pseudovirus BJOX010000.06.2 (clade CRF01_AE (T/F)) (HIV-1)
[6] = target: HIV-1 Env of pseudovirus C2101.c01 (clade CRF01_AE) (HIV-1)
[7] = target: HIV-1 Env of pseudovirus R3265.c06 (clade CRF01_AE) (HIV-1)
[8] = target: HIV-1 Env of pseudovirus BJOX015000.11.5 (clade CRF01_AE (T/F)) (HIV-1)
[9] = target: HIV-1 Env of pseudovirus C4118.c09 (clade CRF01_AE) (HIV-1)

Substance: PG9 (antibody)
- IC50, titer in TZM.bl cells [1]: 0.393 µg/mL
- IC80, titer in TZM.bl cells [1]: 3.19 µg/mL
- IC50, titer in TZM.bl cells [2]: 1.33 µg/mL
- IC80, titer in TZM.bl cells [2]: > 50 µg/mL
- IC50, titer in TZM.bl cells [3]: 0.105 µg/mL
- IC80, titer in TZM.bl cells [3]: 0.304 µg/mL
- IC50, titer in TZM.bl cells [4]: 0.736 µg/mL
- IC80, titer in TZM.bl cells [4]: 2.88 µg/mL
- IC50, titer in TZM.bl cells [5]: 0.154 µg/mL
- IC80, titer in TZM.bl cells [5]: 0.74 µg/mL
- IC50, titer in TZM.bl cells [6]: 0.034 µg/mL
- IC80, titer in TZM.bl cells [6]: 0.099 µg/mL
- IC50, titer in TZM.bl cells [7]: 0.163 µg/mL
- IC80, titer in TZM.bl cells [7]: 0.535 µg/mL
- IC50, titer in TZM.bl cells [8]: 0.322 µg/mL
- IC80, titer in TZM.bl cells [8]: 1.49 µg/mL
- IC50, titer in TZM.bl cells [9]: 0.068 µg/mL
- IC80, titer in TZM.bl cells [9]: 0.2 µg/mL
